Laboratory results reported in US20260028403A1 (Zymeworks, published 2026).

Key:
[1] = target: T1, CD28 on primary human T cells (human, UniProt P10747 19-220); assay: cell-based or functional assay
[2] = target: T1, CD28 on primary human T cells; assay: cell-based or functional assay; remark: listed apart in the source
[3] = target: T2, Recombinant human/cynomolgus/rhesus macaque CD28 mouse IgG2a Fc fusion protein (Acro Biosystems) (human/cynomolgus/rhesus macaque, UniProt P10747 19-152); assay: SPR, in-format anti-CD28 variants, huCD28
T2 construct: bought; also called huCD28

| IL-2 maximum cytokine, T cells alone [2] | IL-2 maximum cytokine, T cells with SNU 601 cells [2] | TNFa maximum cytokine, T cells alone [2] | TNFa maximum cytokine, T cells with SNU 601 cells [2] | Fold-change from WT [3] | Kd [3] | koff [3] | kon [3] | Binder | IC50, T cell-dependent cytotoxicity on SNU 601 [1] | Maximum Killing (%), SNU 601 [1] |
| --- | --- | --- | --- | --- | --- | --- | --- | --- | --- | --- |
| 190 pg/mL | 3400 pg/mL | 25 pg/mL | 409 pg/mL | 28.4 fold | 631 nM | 0.029 s⁻¹ | 67900 M⁻¹ s⁻¹ | v37685 (trispecific antibody, human IgG1, kappa, L234A L235A, also called v37638 format, CD28 VL V1035G) heavy 1: not shown heavy 2: QVQLVESGGGLVQPGGSLRLSCSVSGIDLSSNPMIWVRQAPGKGLQYIGIIDTDGSTYYADWAKGRFTISKDSTTVYLQINSPRAEDTAVYYCARRLHGSSNGYYDDLWGQGTLVTVSSGGGGSGGGGSGGGGSGGGGSDGQMTQSPSSVSASVGDRVTITCQASQSIYSYLSWYQQKPGQRPKLLIYKASTLASGVPSRFSGSGSGTDFTLTISSVQPEDFATYYCQQGYTVTNVDKNTFGGGTKVEIKAAEPKSSDKTHTCPPCPAPEAAGGPSVFLFPPKPKDTLMISRTPEVTCVVVSVSHEDPEVKFNWYVDGVEVHNAKTKPREEQYNSTYRVVSVLTVLHQDWLNGKEYKCKVSNKALPAPIEKTISKAKGQPREPQVYVLPPSRDELTKNQVSLLCLVKGFYPSDIAVEWESNGQPENNYLTWPPVLDSDGSFFLYSKLTVDKSRWQQGNVFSCSVMHEALHNHYTQKSLSLSPG light: DIQMTQSPSSLSASVGDRVTITCRASESVEYYGTSLMQWYQQKPGKAPKLLIYAASNVDSGVPSRFSGSGSGTDFTLTISSLQPEDIATYYCQQSRKVPFTFGGGTKVEIKRTVAAPSVFIFPPSDEQLKSGTASVVCLLNNFYPREAKVQWKVDNALQSGNSQESVTEQDSKDSTYSLSSTLTLSKADYEKHKVYACEVTHQGLSSPVTKSFNRGEC | 0.81 pM | 88.7% |
| 185 pg/mL | 3360 pg/mL | 33.6 pg/mL | 473 pg/mL | 4.9 fold | 109 nM | 0.0107 s⁻¹ | 98600 M⁻¹ s⁻¹ | v37691 (trispecific antibody, human IgG1, kappa, L234A L235A, also called v37638 format, CD28 VH L1112aN) heavy 1: not shown heavy 2: QVQLVESGGGLVQPGGSLRLSCSVSGIDLSSNPMIWVRQAPGKGLQYIGIIDTDGSTYYADWAKGRFTISKDSTTVYLQINSPRAEDTAVYYCARRLHGSSNGYYDDLWGQGTLVTVSSGGGGSGGGGSGGGGSGGGGSDGQMTQSPSSVSASVGDRVTITCQASQSIYSYLSWYQQKPGQRPKLLIYKASTLASGVPSRFSGSGSGTDFTLTISSVQPEDFATYYCQQGYTVTNVDKNTFGGGTKVEIKAAEPKSSDKTHTCPPCPAPEAAGGPSVFLFPPKPKDTLMISRTPEVTCVVVSVSHEDPEVKFNWYVDGVEVHNAKTKPREEQYNSTYRVVSVLTVLHQDWLNGKEYKCKVSNKALPAPIEKTISKAKGQPREPQVYVLPPSRDELTKNQVSLLCLVKGFYPSDIAVEWESNGQPENNYLTWPPVLDSDGSFFLYSKLTVDKSRWQQGNVFSCSVMHEALHNHYTQKSLSLSPG light: DIQMTQSPSSLSASVGDRVTITCRASESVEYYVTSLMQWYQQKPGKAPKLLIYAASNVDSGVPSRFSGSGSGTDFTLTISSLQPEDIATYYCQQSRKVPFTFGGGTKVEIKRTVAAPSVFIFPPSDEQLKSGTASVVCLLNNFYPREAKVQWKVDNALQSGNSQESVTEQDSKDSTYSLSSTLTLSKADYEKHKVYACEVTHQGLSSPVTKSFNRGEC | 0.08 pM | 91% |
| 279 pg/mL | 3780 pg/mL | 39.6 pg/mL | 514 pg/mL | 1.2 fold | 25.8 nM | 0.00253 s⁻¹ | 97300 M⁻¹ s⁻¹ | v37688 (trispecific antibody, human IgG1, kappa, L234A L235A, also called v37638 format, CD28 VH Y1110S) heavy 1: not shown heavy 2: QVQLVESGGGLVQPGGSLRLSCSVSGIDLSSNPMIWVRQAPGKGLQYIGIIDTDGSTYYADWAKGRFTISKDSTTVYLQINSPRAEDTAVYYCARRLHGSSNGYYDDLWGQGTLVTVSSGGGGSGGGGSGGGGSGGGGSDGQMTQSPSSVSASVGDRVTITCQASQSIYSYLSWYQQKPGQRPKLLIYKASTLASGVPSRFSGSGSGTDFTLTISSVQPEDFATYYCQQGYTVTNVDKNTFGGGTKVEIKAAEPKSSDKTHTCPPCPAPEAAGGPSVFLFPPKPKDTLMISRTPEVTCVVVSVSHEDPEVKFNWYVDGVEVHNAKTKPREEQYNSTYRVVSVLTVLHQDWLNGKEYKCKVSNKALPAPIEKTISKAKGQPREPQVYVLPPSRDELTKNQVSLLCLVKGFYPSDIAVEWESNGQPENNYLTWPPVLDSDGSFFLYSKLTVDKSRWQQGNVFSCSVMHEALHNHYTQKSLSLSPG light: DIQMTQSPSSLSASVGDRVTITCRASESVEYYVTSLMQWYQQKPGKAPKLLIYAASNVDSGVPSRFSGSGSGTDFTLTISSLQPEDIATYYCQQSRKVPFTFGGGTKVEIKRTVAAPSVFIFPPSDEQLKSGTASVVCLLNNFYPREAKVQWKVDNALQSGNSQESVTEQDSKDSTYSLSSTLTLSKADYEKHKVYACEVTHQGLSSPVTKSFNRGEC | 0.18 pM | 87.8% |
| 677 pg/mL | 3210 pg/mL | 58.9 pg/mL | 543 pg/mL | 10.8 fold | 239 nM | 0.0211 s⁻¹ | 89600 M⁻¹ s⁻¹ | v37689 (trispecific antibody, human IgG1, kappa, L234A L235A, also called v37638 format, CD28 VH N1111aA) heavy 1: not shown heavy 2: QVQLVESGGGLVQPGGSLRLSCSVSGIDLSSNPMIWVRQAPGKGLQYIGIIDTDGSTYYADWAKGRFTISKDSTTVYLQINSPRAEDTAVYYCARRLHGSSNGYYDDLWGQGTLVTVSSGGGGSGGGGSGGGGSGGGGSDGQMTQSPSSVSASVGDRVTITCQASQSIYSYLSWYQQKPGQRPKLLIYKASTLASGVPSRFSGSGSGTDFTLTISSVQPEDFATYYCQQGYTVTNVDKNTFGGGTKVEIKAAEPKSSDKTHTCPPCPAPEAAGGPSVFLFPPKPKDTLMISRTPEVTCVVVSVSHEDPEVKFNWYVDGVEVHNAKTKPREEQYNSTYRVVSVLTVLHQDWLNGKEYKCKVSNKALPAPIEKTISKAKGQPREPQVYVLPPSRDELTKNQVSLLCLVKGFYPSDIAVEWESNGQPENNYLTWPPVLDSDGSFFLYSKLTVDKSRWQQGNVFSCSVMHEALHNHYTQKSLSLSPG light: DIQMTQSPSSLSASVGDRVTITCRASESVEYYVTSLMQWYQQKPGKAPKLLIYAASNVDSGVPSRFSGSGSGTDFTLTISSLQPEDIATYYCQQSRKVPFTFGGGTKVEIKRTVAAPSVFIFPPSDEQLKSGTASVVCLLNNFYPREAKVQWKVDNALQSGNSQESVTEQDSKDSTYSLSSTLTLSKADYEKHKVYACEVTHQGLSSPVTKSFNRGEC | 0.12 pM | 93.4% |
| 388 pg/mL | 4180 pg/mL | 41 pg/mL | 613 pg/mL | 1.3 fold | 28.1 nM | 0.00252 s⁻¹ | 89300 M⁻¹ s⁻¹ | v37686 (trispecific antibody, human IgG1, kappa, L234A L235A, also called v37638 format, CD28 VL D1068E) heavy 1: not shown heavy 2: QVQLVESGGGLVQPGGSLRLSCSVSGIDLSSNPMIWVRQAPGKGLQYIGIIDTDGSTYYADWAKGRFTISKDSTTVYLQINSPRAEDTAVYYCARRLHGSSNGYYDDLWGQGTLVTVSSGGGGSGGGGSGGGGSGGGGSDGQMTQSPSSVSASVGDRVTITCQASQSIYSYLSWYQQKPGQRPKLLIYKASTLASGVPSRFSGSGSGTDFTLTISSVQPEDFATYYCQQGYTVTNVDKNTFGGGTKVEIKAAEPKSSDKTHTCPPCPAPEAAGGPSVFLFPPKPKDTLMISRTPEVTCVVVSVSHEDPEVKFNWYVDGVEVHNAKTKPREEQYNSTYRVVSVLTVLHQDWLNGKEYKCKVSNKALPAPIEKTISKAKGQPREPQVYVLPPSRDELTKNQVSLLCLVKGFYPSDIAVEWESNGQPENNYLTWPPVLDSDGSFFLYSKLTVDKSRWQQGNVFSCSVMHEALHNHYTQKSLSLSPG light: DIQMTQSPSSLSASVGDRVTITCRASESVEYYVTSLMQWYQQKPGKAPKLLIYAASNVESGVPSRFSGSGSGTDFTLTISSLQPEDIATYYCQQSRKVPFTFGGGTKVEIKRTVAAPSVFIFPPSDEQLKSGTASVVCLLNNFYPREAKVQWKVDNALQSGNSQESVTEQDSKDSTYSLSSTLTLSKADYEKHKVYACEVTHQGLSSPVTKSFNRGEC | 0.09 pM | 88.5% |
| 170 pg/mL | 4140 pg/mL | 21.7 pg/mL | 412 pg/mL | 2.1 fold | 47 nM | 0.00475 s⁻¹ | 101000 M⁻¹ s⁻¹ | v37687 (trispecific antibody, human IgG1, kappa, L234A L235A, also called v37638 format, CD28 VH E1080K) heavy 1: not shown heavy 2: QVQLVESGGGLVQPGGSLRLSCSVSGIDLSSNPMIWVRQAPGKGLQYIGIIDTDGSTYYADWAKGRFTISKDSTTVYLQINSPRAEDTAVYYCARRLHGSSNGYYDDLWGQGTLVTVSSGGGGSGGGGSGGGGSGGGGSDGQMTQSPSSVSASVGDRVTITCQASQSIYSYLSWYQQKPGQRPKLLIYKASTLASGVPSRFSGSGSGTDFTLTISSVQPEDFATYYCQQGYTVTNVDKNTFGGGTKVEIKAAEPKSSDKTHTCPPCPAPEAAGGPSVFLFPPKPKDTLMISRTPEVTCVVVSVSHEDPEVKFNWYVDGVEVHNAKTKPREEQYNSTYRVVSVLTVLHQDWLNGKEYKCKVSNKALPAPIEKTISKAKGQPREPQVYVLPPSRDELTKNQVSLLCLVKGFYPSDIAVEWESNGQPENNYLTWPPVLDSDGSFFLYSKLTVDKSRWQQGNVFSCSVMHEALHNHYTQKSLSLSPG light: DIQMTQSPSSLSASVGDRVTITCRASESVEYYVTSLMQWYQQKPGKAPKLLIYAASNVDSGVPSRFSGSGSGTDFTLTISSLQPEDIATYYCQQSRKVPFTFGGGTKVEIKRTVAAPSVFIFPPSDEQLKSGTASVVCLLNNFYPREAKVQWKVDNALQSGNSQESVTEQDSKDSTYSLSSTLTLSKADYEKHKVYACEVTHQGLSSPVTKSFNRGEC | 0.1 pM | 88.5% |
